Test results: PMC5499675 (2017)

T1: IGRP peptide on HLA-DRA*01:01 / HLA-DRB1*04:01 (human)
T1 peptide: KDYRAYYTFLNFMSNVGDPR

T2: influenza hemagglutinin peptide on HLA-DRA*01:01 / HLA-DRB1*04:01 (human)
T2 peptide: PRYVKQNTLKLAT


Legend:
[1] = target: T1, IGRP peptide on HLA-DRA*01:01 / …; experiment: proliferation
[2] = target: T3, IGRP peptide on HLA-DRA*01:01 / HLA-DRB1*04:01 (human); experiment: proliferation; remark: listed apart in the source
[3] = target: IGRP peptide on HLA-DRA*01:01 / HLA-DRB1*04:01 (human); experiment: multimer staining
[4] = target: T2, influenza hemagglutinin peptide on …; experiment: multimer staining
[5] = target: T1, IGRP peptide on HLA-DRA*01:01 / …; experiment: multimer staining
[6] = target: T3, IGRP peptide on HLA-DRA*01:01 / …; experiment: multimer staining; remark: listed apart in the source

Binder	binding result [1]	binding result [2]	binding result [3]	binding result [4]	binding result [5]	binding result [6]
Expanded TCR clonotype from subject T1D4 (Sequences 3 and 4) (TCR) alpha TRAV2 TRAJ15 CDR3: CAVEDLNQAGTALIF beta TRBV5-1 TRBJ2-1 CDR3: CASSLALGQGNQQFF	no recognition	no recognition	recognises	no recognition	–	–
Expanded TCR clonotype from subject T1D2 (Sequences 1 and 2) (TCR) alpha TRAV29 TRAJ40 CDR3: CAATRTSGTYKYIF beta TRBV6-6 TRBJ2-3 CDR3: CASSPWGAGGTDTQYF	–	–	no recognition	no recognition	no recognition	recognises
